Measurements published in PMC8124205, “Immuno-PET Molecular Imaging of RANKL in Cancer” (Cancers, 2021).

Biological target: T1, osteoprotegerin (OPG) (UniProt O00300 22-401)
T1 construct: osteoprotegerin (OPG)
T1 sequence (looked up): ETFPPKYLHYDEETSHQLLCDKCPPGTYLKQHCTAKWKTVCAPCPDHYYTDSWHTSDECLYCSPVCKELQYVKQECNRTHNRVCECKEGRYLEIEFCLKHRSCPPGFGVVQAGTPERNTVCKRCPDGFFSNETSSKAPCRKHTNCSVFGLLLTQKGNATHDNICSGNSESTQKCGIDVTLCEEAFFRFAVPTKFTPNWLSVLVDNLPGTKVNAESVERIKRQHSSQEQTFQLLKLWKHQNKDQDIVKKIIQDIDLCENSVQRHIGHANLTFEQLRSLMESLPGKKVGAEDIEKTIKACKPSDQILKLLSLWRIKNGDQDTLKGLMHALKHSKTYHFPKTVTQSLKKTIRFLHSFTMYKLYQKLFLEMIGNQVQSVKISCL
Experiment: non-cell based binding assay; binding to human RANKL, as previously described (ref. 14); format and conditions not told

B1: human receptor activator of nuclear factor kappa B ligand (RANKL) (ligand, UniProt O14788 140-317, looked up)
chain: IRAEKAMVDGSWLDLAKRSKLEAQPFAHLTINATDIPSGSHKVSLSSWYHDRGWAKISNMTFSNGKLIVNQDGFYYLYANICFRHHETSGDLATEYLQLMVYVTKTSIKIPSSHTLMKGGSTKYWSGNSEFHFYSINVGGFFKLRSGEEISIEVSNPSLLDPDQDATYFGAFKVRDID
notes: also called human RANKL; huRANKL; source: recombinant protein huRANKL, provided by Amgen Inc
Work on B1 yielded a Kd of roughly 0.63 nM.
